According to article PMC7473840 (2018):
Each block holds one binder with its values, some of them ahead of it. No end group written: not given here.

Molecular target: FMRP (Homo sapiens, UniProt Q06787)

Kd: 0.42 µM
B1: Kv1.2 C-terminal phosphopeptide pS440 C-terminus (peptide)
chain: TSCPKIPSSPDLKKS
modifications: also: phosphoserine pS440 plus a second phosphosite, positions not given here

Kd: 33.9 µM
B2: Kv1.2 C-terminal phosphopeptide pS440 C-terminus (peptide)
chain: TSCPKIPSSPDLKKS
modifications: also: phosphoserine pS440, position in chain not given here
